Here are results for 1 molecule from PMC3167601.

Assay in all cases: fluorescence anisotropy
(In fluorescence polarisation assays a small probe gives low polarisation when free and higher when bound to something large.)

Data set [1] deals with T1, IRF-3 DBD wild type (human, UniProt Q14653 1-113).
T1 sequence: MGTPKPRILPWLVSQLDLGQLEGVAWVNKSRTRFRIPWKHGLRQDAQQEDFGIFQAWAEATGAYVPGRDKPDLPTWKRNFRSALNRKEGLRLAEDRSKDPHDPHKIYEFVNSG

For data set [2], the target named is T2, IRF-3 DBD H40A (human, UniProt Q14653 1-113, H40A).
T2 sequence: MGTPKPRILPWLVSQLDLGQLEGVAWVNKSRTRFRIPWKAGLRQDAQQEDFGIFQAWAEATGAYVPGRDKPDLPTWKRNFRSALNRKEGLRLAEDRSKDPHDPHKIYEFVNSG

The target in data set [3] is T3, IRF-7 DBD H44A (mouse, UniProt P70434 1-134, H44A).
T3 sequence: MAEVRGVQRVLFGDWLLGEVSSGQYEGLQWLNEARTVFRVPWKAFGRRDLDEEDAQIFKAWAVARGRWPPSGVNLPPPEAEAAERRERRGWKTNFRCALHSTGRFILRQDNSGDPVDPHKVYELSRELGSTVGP

The target in data set [4] is T4, IRF-7 DBD wild type (mouse, UniProt P70434 1-134).
T4 sequence: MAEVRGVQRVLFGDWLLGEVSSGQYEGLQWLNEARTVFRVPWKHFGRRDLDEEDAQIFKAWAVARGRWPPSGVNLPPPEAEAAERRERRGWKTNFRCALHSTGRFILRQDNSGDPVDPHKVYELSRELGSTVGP

B1: PRDI 15-mer duplex (dsDNA)
DNA 1: GAGAAGTGAAAGTGG
DNA 2: CCACTTTCACTTCTC
One may read the Kd as the concentration at which binding is half-saturated. Low readings indicate tighter binding, high ones weaker binding. B1: the Kd was 0.486 µM in data set [1], 1.71 µM in data set [2], 0.532 µM in data set [3] and 0.63 µM in data set [4].
